Literature values, collected in paper PMC5382571.
Where two headings read alike, the source gives them in different places.

Experiments:
PCNA (Homo sapiens) [1] = molecular target: PCNA (Homo sapiens) (UniProt P12004)
PCNA (Homo sapiens) [2] = molecular target: PCNA (Homo sapiens) (UniProt P12004); remark: listed apart in the source

Sequence of UniProt P12004 (P12004 whole entry): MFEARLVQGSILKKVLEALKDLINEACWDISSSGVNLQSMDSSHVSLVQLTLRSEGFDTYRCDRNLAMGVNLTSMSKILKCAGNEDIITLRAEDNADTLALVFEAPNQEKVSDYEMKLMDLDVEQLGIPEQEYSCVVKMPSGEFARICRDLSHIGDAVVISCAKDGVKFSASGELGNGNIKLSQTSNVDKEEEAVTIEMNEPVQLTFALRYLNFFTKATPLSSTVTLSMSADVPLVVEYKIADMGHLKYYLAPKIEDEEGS

Row | Kd (PCNA (Homo sapiens) [1]) [nM] | Kd (PCNA (Homo sapiens) [2]) [nM] | Substance
1 | < 10 | – | DNA polymerase delta (from UniProt P28340)
2 | – | 0.2 | RFC (from UniProt P35251)
